Source: patent US20200262877A1, “ION CHANNEL-BINDING PEPTIDES AND METHODS OF USE THEREOF” (priority 2017, published 2020)

Columns and labels:
Nav1.7 = biological target: T1, Nav1.7 (Homo sapiens, UniProt Q15858); assay: cell-based; assay type: cell-based; details: 100% = no change; for Activity of Nav1.7 with peptide, expressed as a percentage of the reference compound: peptide at 0.2 μM; for Activity of Nav1.7 with peptide (percentage of the reference compound): peptide at 20 μM
T1 construct: host or cells: HEK293 or CHO
T1 sequence (Q15858 whole entry): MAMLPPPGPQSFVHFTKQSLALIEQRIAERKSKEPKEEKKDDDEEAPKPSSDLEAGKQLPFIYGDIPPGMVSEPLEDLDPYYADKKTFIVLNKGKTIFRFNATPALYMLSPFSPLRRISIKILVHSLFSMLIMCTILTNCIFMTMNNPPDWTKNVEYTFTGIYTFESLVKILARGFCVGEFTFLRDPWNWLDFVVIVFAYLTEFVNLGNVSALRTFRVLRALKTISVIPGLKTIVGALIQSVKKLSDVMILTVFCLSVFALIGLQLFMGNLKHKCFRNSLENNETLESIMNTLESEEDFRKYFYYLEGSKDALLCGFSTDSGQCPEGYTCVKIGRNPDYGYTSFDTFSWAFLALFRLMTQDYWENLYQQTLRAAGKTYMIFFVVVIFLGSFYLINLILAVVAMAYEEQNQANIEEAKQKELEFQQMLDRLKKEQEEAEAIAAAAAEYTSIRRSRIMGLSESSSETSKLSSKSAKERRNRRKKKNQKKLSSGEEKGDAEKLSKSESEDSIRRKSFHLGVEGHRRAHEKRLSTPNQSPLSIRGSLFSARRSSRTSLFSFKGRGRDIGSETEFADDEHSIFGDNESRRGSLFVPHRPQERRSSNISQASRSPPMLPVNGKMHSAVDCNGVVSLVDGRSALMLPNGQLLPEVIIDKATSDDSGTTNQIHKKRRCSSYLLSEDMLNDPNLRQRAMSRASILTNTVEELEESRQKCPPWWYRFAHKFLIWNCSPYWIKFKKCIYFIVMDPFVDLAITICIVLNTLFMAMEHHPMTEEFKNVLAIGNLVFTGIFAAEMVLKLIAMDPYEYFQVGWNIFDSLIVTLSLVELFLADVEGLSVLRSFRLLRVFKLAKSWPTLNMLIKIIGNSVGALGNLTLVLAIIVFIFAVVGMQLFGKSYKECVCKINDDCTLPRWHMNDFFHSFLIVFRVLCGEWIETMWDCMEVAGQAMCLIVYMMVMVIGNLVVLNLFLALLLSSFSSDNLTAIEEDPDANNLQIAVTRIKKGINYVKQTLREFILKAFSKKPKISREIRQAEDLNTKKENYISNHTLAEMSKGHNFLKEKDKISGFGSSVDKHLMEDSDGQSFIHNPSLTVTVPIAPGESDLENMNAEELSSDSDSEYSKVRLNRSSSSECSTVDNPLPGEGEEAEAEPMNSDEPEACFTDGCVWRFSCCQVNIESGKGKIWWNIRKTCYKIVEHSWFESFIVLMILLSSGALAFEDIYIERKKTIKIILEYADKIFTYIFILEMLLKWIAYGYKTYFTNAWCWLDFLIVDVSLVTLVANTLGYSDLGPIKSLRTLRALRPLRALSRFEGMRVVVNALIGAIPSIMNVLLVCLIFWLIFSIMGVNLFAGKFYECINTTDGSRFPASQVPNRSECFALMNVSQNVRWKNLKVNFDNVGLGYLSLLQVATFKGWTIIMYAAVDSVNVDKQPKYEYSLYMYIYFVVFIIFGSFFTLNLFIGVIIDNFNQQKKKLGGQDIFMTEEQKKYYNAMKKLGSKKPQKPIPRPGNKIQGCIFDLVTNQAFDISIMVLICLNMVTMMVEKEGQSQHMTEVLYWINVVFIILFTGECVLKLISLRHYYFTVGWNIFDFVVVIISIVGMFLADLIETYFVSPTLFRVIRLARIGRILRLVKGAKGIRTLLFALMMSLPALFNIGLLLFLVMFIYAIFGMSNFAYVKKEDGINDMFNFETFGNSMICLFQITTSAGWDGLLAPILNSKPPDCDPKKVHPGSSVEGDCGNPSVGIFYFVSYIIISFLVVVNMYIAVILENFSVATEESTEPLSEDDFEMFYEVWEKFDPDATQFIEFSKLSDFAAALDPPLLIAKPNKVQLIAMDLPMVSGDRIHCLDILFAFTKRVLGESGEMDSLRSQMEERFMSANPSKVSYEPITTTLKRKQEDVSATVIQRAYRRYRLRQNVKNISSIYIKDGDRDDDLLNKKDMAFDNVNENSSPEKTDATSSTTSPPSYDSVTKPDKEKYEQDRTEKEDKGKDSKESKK

5HT3a = biological target: T2, 5HT3a (Homo sapiens, UniProt P46098); assay: Ion channel panel (IonWorks Barracuda): 5HT3a; assay type: cell-based
T2 construct: host or cells: HEK293 or CHO
T2 sequence (P46098 whole entry, looked up): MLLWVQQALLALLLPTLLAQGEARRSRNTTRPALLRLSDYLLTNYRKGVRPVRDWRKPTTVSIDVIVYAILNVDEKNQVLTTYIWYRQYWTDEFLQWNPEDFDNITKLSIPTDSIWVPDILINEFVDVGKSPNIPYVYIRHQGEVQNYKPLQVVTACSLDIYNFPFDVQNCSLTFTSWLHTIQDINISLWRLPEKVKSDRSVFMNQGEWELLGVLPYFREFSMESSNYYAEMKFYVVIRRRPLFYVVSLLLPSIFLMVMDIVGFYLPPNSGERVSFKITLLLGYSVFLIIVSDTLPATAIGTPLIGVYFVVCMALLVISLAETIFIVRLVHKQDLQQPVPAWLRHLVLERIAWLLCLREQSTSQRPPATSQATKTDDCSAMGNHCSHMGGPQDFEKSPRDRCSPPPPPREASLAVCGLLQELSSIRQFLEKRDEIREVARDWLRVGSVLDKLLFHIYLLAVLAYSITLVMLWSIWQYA
Summary of the method: (§1)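 Transfected HEK293 or CHO cells were exposed for at least 5 min to peptides at 200 nM and 20 μM final, tested in duplicate, in HEPES-buffered physiological saline. Activation was taken as peptide-plus-agonist current over control current ×100, and inhibition as 1 minus that ratio ×100. Each channel's control was its own reference compound.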

NR2B = biological target: T3, NR2B (Homo sapiens, UniProt Q13224); assay: Ion channel panel (IonWorks Barracuda): NR2B; assay type: cell-based; details: 100% = no change, <100% = inhibition
T3 construct: host or cells: HEK293 or CHO
Summary of the method: as §1

Kir2.1 = biological target: T4, Kir2.1 (Homo sapiens, UniProt P63252); assay: Ion channel panel (IonWorks Barracuda): Kir2.1; assay type: cell-based; details: 100% = no change, <100% = inhibition
T4 construct: host or cells: HEK293 or CHO
Summary of the method: as §1

α4β2 = biological target: T5, α4β2 (Homo sapiens, UniProt P17787+P43681); assay: Ion channel panel (IonWorks Barracuda): α4β2; assay type: cell-based; details: 100% = no change, <100% = inhibition
T5 construct: host or cells: HEK293 or CHO
Summary of the method: as §1

Nav1.5 = Nav1.5 (Homo sapiens, UniProt Q14524); assay: in vitro; details: 100% = no change; for Activity of Nav1.5 with peptide, expressed as a percentage of the reference compound: peptide at 0.2 μM; for Activity of Nav1.5 with peptide (percentage of the reference compound): peptide at 20 μM
Chain of Nav1.5 (Q14524 whole entry): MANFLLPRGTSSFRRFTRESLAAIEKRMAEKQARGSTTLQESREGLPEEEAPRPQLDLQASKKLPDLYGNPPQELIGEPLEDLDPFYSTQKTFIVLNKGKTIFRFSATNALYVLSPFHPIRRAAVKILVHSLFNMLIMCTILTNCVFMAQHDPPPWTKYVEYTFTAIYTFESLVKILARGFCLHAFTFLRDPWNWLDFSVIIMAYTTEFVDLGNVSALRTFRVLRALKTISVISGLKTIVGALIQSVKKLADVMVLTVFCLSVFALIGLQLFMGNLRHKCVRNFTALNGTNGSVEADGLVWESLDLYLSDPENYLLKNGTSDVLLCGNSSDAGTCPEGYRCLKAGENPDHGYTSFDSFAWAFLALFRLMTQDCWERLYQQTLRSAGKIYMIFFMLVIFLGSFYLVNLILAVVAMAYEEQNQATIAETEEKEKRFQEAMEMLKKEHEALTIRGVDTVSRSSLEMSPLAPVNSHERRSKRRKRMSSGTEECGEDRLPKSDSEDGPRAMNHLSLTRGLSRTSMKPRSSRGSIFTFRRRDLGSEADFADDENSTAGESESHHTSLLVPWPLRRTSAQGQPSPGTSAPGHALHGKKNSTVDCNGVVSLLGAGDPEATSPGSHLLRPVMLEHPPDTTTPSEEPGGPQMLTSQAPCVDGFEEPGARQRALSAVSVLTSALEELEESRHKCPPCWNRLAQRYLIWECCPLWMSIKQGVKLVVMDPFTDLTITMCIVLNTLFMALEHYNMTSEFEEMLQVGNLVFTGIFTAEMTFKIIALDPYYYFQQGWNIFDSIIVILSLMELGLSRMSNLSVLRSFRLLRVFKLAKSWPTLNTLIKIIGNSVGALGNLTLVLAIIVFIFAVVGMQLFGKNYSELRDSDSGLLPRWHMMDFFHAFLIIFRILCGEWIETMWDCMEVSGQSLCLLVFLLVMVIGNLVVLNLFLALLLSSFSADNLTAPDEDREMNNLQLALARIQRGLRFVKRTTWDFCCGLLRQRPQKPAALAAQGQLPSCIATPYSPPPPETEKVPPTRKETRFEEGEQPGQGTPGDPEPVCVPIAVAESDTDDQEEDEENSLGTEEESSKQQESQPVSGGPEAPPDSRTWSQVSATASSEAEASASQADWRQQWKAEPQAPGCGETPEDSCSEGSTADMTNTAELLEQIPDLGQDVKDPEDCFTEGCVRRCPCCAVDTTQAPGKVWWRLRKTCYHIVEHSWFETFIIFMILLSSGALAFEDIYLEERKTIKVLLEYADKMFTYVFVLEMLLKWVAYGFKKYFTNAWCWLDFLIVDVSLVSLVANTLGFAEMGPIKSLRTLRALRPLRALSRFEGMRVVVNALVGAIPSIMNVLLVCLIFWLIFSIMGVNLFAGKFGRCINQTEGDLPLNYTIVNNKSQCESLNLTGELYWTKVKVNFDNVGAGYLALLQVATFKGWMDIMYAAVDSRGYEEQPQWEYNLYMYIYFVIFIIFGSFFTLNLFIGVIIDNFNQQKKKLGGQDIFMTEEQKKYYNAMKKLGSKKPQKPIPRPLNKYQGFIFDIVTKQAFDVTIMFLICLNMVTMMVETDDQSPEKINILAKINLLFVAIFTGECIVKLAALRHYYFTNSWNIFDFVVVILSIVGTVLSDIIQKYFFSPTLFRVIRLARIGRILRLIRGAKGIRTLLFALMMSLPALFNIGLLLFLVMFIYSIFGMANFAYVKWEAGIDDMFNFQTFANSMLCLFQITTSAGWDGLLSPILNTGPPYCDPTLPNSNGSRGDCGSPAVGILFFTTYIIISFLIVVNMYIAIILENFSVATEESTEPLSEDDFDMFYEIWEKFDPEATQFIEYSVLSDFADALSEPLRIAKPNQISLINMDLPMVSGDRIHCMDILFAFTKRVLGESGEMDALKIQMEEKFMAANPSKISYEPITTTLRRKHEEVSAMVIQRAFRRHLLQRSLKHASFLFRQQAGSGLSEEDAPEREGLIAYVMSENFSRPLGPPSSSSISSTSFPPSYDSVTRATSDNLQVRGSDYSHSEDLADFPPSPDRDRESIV
Summary of the method: as §1

hERG = hERG (Homo sapiens, UniProt Q12809); assay: in vitro; details: 100% = no change, <100% = inhibition
Summary of the method: as §1

Cav2.1 = biological target: T6, Cav2.1 (Homo sapiens, UniProt O00555); assay: cell-based; details: 100% = no change, <100% = inhibition
T6 construct: host or cells: HEK293 or CHO
Summary of the method: as §1

Kv2.1 = biological target: T7, Kv2.1 (Homo sapiens, UniProt Q14721); assay: cell-based; details: 100% = no change, <100% = inhibition
T7 construct: host or cells: HEK293 or CHO
Summary of the method: as §1

Cav2.2 = biological target: T8, Cav2.2 (Homo sapiens, UniProt Q00975); assay: cell-based; details: 100% = no change, <100% = inhibition
T8 construct: host or cells: HEK293 or CHO
Summary of the method: as §1

GABA = assay: Ion channel panel (IonWorks Barracuda): GABA; assay type: cell-based; details: 100% = no change, <100% = inhibition
Summary of the method: as §1

Kv1.2 = biological target: T9, Kv1.2 (Homo sapiens, UniProt P16389); assay: cell-based; assay type: cell-based; details: 100% = no change, <100% = inhibition
T9 construct: host or cells: HEK293 or CHO
T9 sequence (P16389 whole entry): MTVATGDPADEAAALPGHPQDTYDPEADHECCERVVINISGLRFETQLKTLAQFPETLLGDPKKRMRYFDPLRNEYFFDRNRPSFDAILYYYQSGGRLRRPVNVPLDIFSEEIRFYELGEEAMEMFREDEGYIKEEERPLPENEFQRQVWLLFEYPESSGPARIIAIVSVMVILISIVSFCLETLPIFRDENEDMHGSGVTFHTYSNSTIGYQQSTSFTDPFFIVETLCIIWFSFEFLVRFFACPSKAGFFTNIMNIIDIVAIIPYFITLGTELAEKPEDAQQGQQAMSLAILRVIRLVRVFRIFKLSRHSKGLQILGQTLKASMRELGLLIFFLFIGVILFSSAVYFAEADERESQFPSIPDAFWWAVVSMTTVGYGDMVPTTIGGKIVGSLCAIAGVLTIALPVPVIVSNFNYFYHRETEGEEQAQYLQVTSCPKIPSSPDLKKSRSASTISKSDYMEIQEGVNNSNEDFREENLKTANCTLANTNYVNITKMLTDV
Summary of the method: as §1

Kv1.1 = biological target: T10, Kv1.1 (Homo sapiens, UniProt Q09470); assay: cell-based; assay type: cell-based; details: 100% = no change, <100% = inhibition
T10 construct: host or cells: HEK293 or CHO
Summary of the method: as §1

Kv1.3 = biological target: T11, Kv1.3 (Homo sapiens, UniProt P22001); assay: cell-based; assay type: cell-based; details: 100% = no change, <100% = inhibition
T11 construct: host or cells: HEK293 or CHO
T11 sequence (P22001 whole entry): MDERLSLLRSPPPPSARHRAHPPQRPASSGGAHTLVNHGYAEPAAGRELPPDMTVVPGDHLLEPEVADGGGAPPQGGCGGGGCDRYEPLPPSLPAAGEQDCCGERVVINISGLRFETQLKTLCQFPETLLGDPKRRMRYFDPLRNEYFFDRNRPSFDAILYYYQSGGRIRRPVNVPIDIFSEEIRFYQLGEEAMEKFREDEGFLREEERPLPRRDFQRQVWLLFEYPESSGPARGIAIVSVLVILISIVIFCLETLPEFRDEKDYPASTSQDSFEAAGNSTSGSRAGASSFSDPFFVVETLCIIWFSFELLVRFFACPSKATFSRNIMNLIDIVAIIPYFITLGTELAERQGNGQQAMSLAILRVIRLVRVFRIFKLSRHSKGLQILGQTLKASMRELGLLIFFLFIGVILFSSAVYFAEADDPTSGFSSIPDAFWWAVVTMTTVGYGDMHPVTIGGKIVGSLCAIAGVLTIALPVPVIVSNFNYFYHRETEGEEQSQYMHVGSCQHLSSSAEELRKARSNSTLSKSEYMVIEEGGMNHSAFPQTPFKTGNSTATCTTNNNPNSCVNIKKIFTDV
Summary of the method: as §1

α3β4 = biological target: T12, α3β4 (Homo sapiens, UniProt P30926+P32297); assay: Ion channel panel (IonWorks Barracuda): α3β4; assay type: cell-based; details: 100% = no change, <100% = inhibition
T12 construct: host or cells: HEK293 or CHO
Summary of the method: as §1

NR2A = biological target: T13, NR2A (Homo sapiens, UniProt Q12879); assay: Ion channel panel (IonWorks Barracuda): NR2A; assay type: cell-based; details: 100% = no change, <100% = inhibition
T13 construct: host or cells: HEK293 or CHO
Summary of the method: as §1

TRPV1 = biological target: T14, TRPV1 (Homo sapiens, UniProt Q8NER1); assay: Ion channel panel (IonWorks Barracuda): TRPV1; assay type: cell-based; details: 100% = no change, <100% = inhibition
T14 construct: host or cells: HEK293 or CHO
Summary of the method: as §1

TRPA1 = biological target: T15, TRPA1 (Homo sapiens, UniProt O75762); assay: Ion channel panel (IonWorks Barracuda): TRPA1; assay type: cell-based; details: 100% = no change, <100% = inhibition
T15 construct: host or cells: HEK293 or CHO
Summary of the method: as §1

[1] = first of two Nav1.7 columns (probably TP1)
[2] = second of two Nav1.7 columns (probably TP2)
[3] = first of two Nav1.5 columns (probably TP1)
[4] = second of two Nav1.5 columns (probably TP2)

Substance: 26 (GSVVIGQRCYRSPDCYSACKKLVGKATGKCTNGRCDC) [compound 26]
- Activity of Nav1.7 with peptide, expressed as a percentage of the reference compound (Nav1.7; [1]): 81%
- Activity of Nav1.7 with peptide, expressed as a percentage of the reference compound (Nav1.7; [2]): 74%
- Activity of Nav1.7 with peptide (percentage of the reference compound) (Nav1.7; [1]): 73%
- Activity of Nav1.7 with peptide (percentage of the reference compound) (Nav1.7; [2]): 60%
- Activity of 5HT3a with peptide (percentage of the reference compound) (5HT3a): 96%
- Activity of 5HT3a with peptide, expressed as a percentage of the reference compound (5HT3a): 82%
- Activity of NR2B with peptide, expressed as a percentage of the reference compound (NR2B; peptide at 0.2 μM): 86%
- Activity of NR2B with peptide (percentage of the reference compound) (NR2B; peptide at 20 μM): 79%
- Activity of Kir2.1 with peptide, expressed as a percentage of the reference compound (Kir2.1; peptide at 0.2 μM): 102%
- Activity of Kir2.1 with peptide (percentage of the reference compound) (Kir2.1; peptide at 20 μM): 93%
- Activity of a4b2 with peptide, expressed as a percentage of the reference compound (α4β2; peptide at 0.2 μM): 85%
- Activity of a4b2 with peptide (percentage of the reference compound) (α4β2; peptide at 20 μM): 89%
- Activity of Nav1.5 with peptide, expressed as a percentage of the reference compound (Nav1.5; [3]): 92%
- Activity of Nav1.5 with peptide, expressed as a percentage of the reference compound (Nav1.5; [4]): 91%
- Activity of Nav1.5 with peptide (percentage of the reference compound) (Nav1.5; [3]): 90%
- Activity of Nav1.5 with peptide (percentage of the reference compound) (Nav1.5; [4]): 94%
- Activity of hERG with peptide, expressed as a percentage of the reference compound (hERG; peptide at 0.2 μM): 80%
- Activity of hERG with peptide (percentage of the reference compound) (hERG; peptide at 20 μM): 74%
- Activity of Cav2.1 with peptide, expressed as a percentage of the reference compound (Cav2.1; peptide at 0.2 μM): 115%
- Activity of Cav2.1 with peptide (percentage of the reference compound) (Cav2.1; peptide at 20 μM): 85%
- Activity of Kv2.1 with peptide, expressed as a percentage of the reference compound (Kv2.1; peptide at 0.2 μM): 98%
- Activity of Kv2.1 with peptide (percentage of the reference compound) (Kv2.1; peptide at 20 μM): 102%
- Activity of Cav2.2 with peptide, expressed as a percentage of the reference compound (Cav2.2; peptide at 0.2 μM): 103%
- Activity of Cav2.2 with peptide (percentage of the reference compound) (Cav2.2; peptide at 20 μM): 121%
- Activity of GABA with peptide, expressed as a percentage of the reference compound (GABA; peptide at 0.2 μM): 117%
- Activity of GABA with peptide (percentage of the reference compound) (GABA; peptide at 20 μM): 106%
- Activity of Kv1.2 with peptide, expressed as a percentage of the reference compound (Kv1.2; peptide at 0.2 μM): 79%
- Activity of Kv1.2 with peptide (percentage of the reference compound) (Kv1.2; peptide at 20 μM): 47%
- Activity of Kv1.1 with peptide, expressed as a percentage of the reference compound (Kv1.1; peptide at 0.2 μM): 66%
- Activity of Kv1.1 with peptide (percentage of the reference compound) (Kv1.1; peptide at 20 μM): 85%
- Activity of Kv1.3 with peptide, expressed as a percentage of the reference compound (Kv1.3; peptide at 0.2 μM): 94%
- Activity of Kv1.3 with peptide (percentage of the reference compound) (Kv1.3; peptide at 20 μM): 77%
- Activity of a3b4 with peptide, expressed as a percentage of the reference compound (α3β4; peptide at 0.2 μM): 88%
- Activity of a3b4 with peptide (percentage of the reference compound) (α3β4; peptide at 20 μM): 91%
- Activity of NR2A with peptide, expressed as a percentage of the reference compound (NR2A; peptide at 0.2 μM): 113%
- Activity of NR2A with peptide (percentage of the reference compound) (NR2A; peptide at 20 μM): 114%
- Activity of TRPV1 with peptide, expressed as a percentage of the reference compound (TRPV1; peptide at 0.2 μM): 116%
- Activity of TRPV1 with peptide (percentage of the reference compound) (TRPV1; peptide at 20 μM): 92%
- Activity of TRPA1 with peptide, expressed as a percentage of the reference compound (TRPA1; peptide at 0.2 μM): 109%
- Activity of TRPA1 with peptide (percentage of the reference compound) (TRPA1; peptide at 20 μM): 115%
